To fix the notation:
B1: GST-Pif1N(56–77) [S. cerevisiae] / Rfa1N(1–132)-4myc [S. cerevisiae] (parent complex)
chain 1: KHPSILSKEDLDLLSDSDDWEE
chain 2: MSSVQLSRGDFHSIFTNKQRYDNPTGGVYQVYNTRKSDGANSNRKNLIMISDGIYHMKALLRNQAASKFQSMELQRGDIIRVIIAEPAIVRERKKYVLLVDDFELVQSRADMVNQTSTFLDNYFSEHPNETL

The assay covers variants of B1. Briefly: GST pull-down followed by myc-specific western blotting, quantified; n = 3 biological replicates; parent: 0.53; read off a plot. Background: Immunoblotting shows a protein as a band on a membrane.
As to chain 1 KHPSILSKEDAAAASDSDDWEE, the response is ~0.077 % of input.

The record behind these values is article PMC11014909 (2024).
